* marks the point of attachment. 5FAM = O=C1OC2(c3ccc(O)cc3Oc3cc(O)ccc32)c2ccc(C(=O)*)cc21
B1: PGC1α FAM-labeled coregulator peptide (peptide)
peptide: 5FAM-EEPSLLKKLLLAPA-OH
SMILES: CC(C)C[C@H](NC(=O)[C@H](CC(C)C)NC(=O)[C@H](CC(C)C)NC(=O)[C@H](CCCCN)NC(=O)[C@H](CCCCN)NC(=O)[C@H](CC(C)C)NC(=O)[C@H](CC(C)C)NC(=O)[C@H](CO)NC(=O)[C@@H]1CCCN1C(=O)[C@H](CCC(=O)O)NC(=O)[C@H](CCC(=O)O)NC(=O)c1ccc2c(c1)C(=O)OC21c2ccc(O)cc2Oc2cc(O)ccc21)C(=O)N[C@@H](C)C(=O)N1CCC[C@H]1C(=O)N[C@@H](C)C(=O)O
B2: DAX1-3 FAM-labeled coregulator peptide (peptide)
peptide: 5FAM-QGSILYSLLMSAKQ-OH
SMILES: CC[C@H](C)[C@H](NC(=O)[C@H](CO)NC(=O)CNC(=O)[C@H](CCC(N)=O)NC(=O)c1ccc2c(c1)C(=O)OC21c2ccc(O)cc2Oc2cc(O)ccc21)C(=O)N[C@@H](CC(C)C)C(=O)N[C@@H](Cc1ccc(O)cc1)C(=O)N[C@@H](CO)C(=O)N[C@@H](CC(C)C)C(=O)N[C@@H](CC(C)C)C(=O)N[C@@H](CCSC)C(=O)N[C@@H](CO)C(=O)N[C@@H](C)C(=O)N[C@@H](CCCCN)C(=O)N[C@@H](CCC(N)=O)C(=O)O
B3: SHP-1 FAM-labeled coregulator peptide (peptide)
peptide: 5FAM-RPTILYALLSPSPR-OH
SMILES: CC[C@H](C)[C@H](NC(=O)[C@@H](NC(=O)[C@@H]1CCCN1C(=O)[C@H](CCCNC(=N)N)NC(=O)c1ccc2c(c1)C(=O)OC21c2ccc(O)cc2Oc2cc(O)ccc21)[C@@H](C)O)C(=O)N[C@@H](CC(C)C)C(=O)N[C@@H](Cc1ccc(O)cc1)C(=O)N[C@@H](C)C(=O)N[C@@H](CC(C)C)C(=O)N[C@@H](CC(C)C)C(=O)N[C@@H](CO)C(=O)N1CCC[C@H]1C(=O)N[C@@H](CO)C(=O)N1CCC[C@H]1C(=O)N[C@@H](CCCNC(=N)N)C(=O)O

The binders below were run against human LRH-1 (NR5A2) ligand-binding domain (LBD) (human, UniProt O00482-1 266-541) (assay: fluorescence polarisation).
Chain of human LRH-1 (NR5A2) ligand-binding domain (LBD) (O00482 266-541): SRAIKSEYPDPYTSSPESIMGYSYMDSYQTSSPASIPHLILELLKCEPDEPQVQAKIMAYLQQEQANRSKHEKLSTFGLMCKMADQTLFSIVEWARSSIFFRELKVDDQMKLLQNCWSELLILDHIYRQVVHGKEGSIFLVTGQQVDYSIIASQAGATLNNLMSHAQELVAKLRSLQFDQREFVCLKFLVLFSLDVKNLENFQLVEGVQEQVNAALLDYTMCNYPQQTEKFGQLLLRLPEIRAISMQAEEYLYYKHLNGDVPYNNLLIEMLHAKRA

| Binder | binding result |
| --- | --- |
| B1 | binds |
| B2 | binds |
| B3 | binds |

Reference: publication doi:10.1101/2024.05.05.592606 (bioRxiv, 2024)
